The test system of series [1] is MS2 coat protein. Put plainly: apparent KD of MS2 coat protein, switch ON state; designed switch direction (-1 OFF switch, 1 ON switch): 1; higher = weaker reporter binding. The conditions noted are these: FMN input: 0 or 200 uM; Eterna round: R93 (includes R88 designs). The procedure, abridged: (§1)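 Designed RNA switches were made by on-chip transcription from Illumina sequencing clusters and then titrated with SNAP-549-labelled MS2 coat protein. Twofold steps ran from 0.7 or 1.5 nM to 3 µM, each lasting 0.8–1.5 h early and 10–20 min late, in 100 mM Tris-HCl pH 7.5, 80 mM KCl, 4 mM MgCl2, without or with constant ligand. Apparent KD is the per-design median of normalised cluster binding-curve fits.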

In series [2] the test system is MS2 coat protein. Put plainly: apparent KD of MS2 coat protein, switch OFF state (with FMN for OFF switches, without FMN for ON switches); designed switch direction (-1 OFF switch, 1 ON switch): 1; higher = weaker reporter binding. The conditions noted are these: FMN input: 0 or 200 uM; Eterna round: R93 (includes R88 designs). The method in brief:
as §1

Turning to “GAAGACAUAGUUCAGGAUAUAGGAAUAGUCACAUGAGGAUCACCCAUGUGCAUUUAUAUGCGCGCUUAGAAGGGAGGUAGUUAUA [SameState2 Malc#21]”, the results for the “apparent KD of MS2 coat protein” value in series [1] and in series [2] were 0.0242 µM and 0.0239 µM, respectively.
For “GAAGACAUAGUUCAGGAUAUGGGAAUAGUCACAUGAGGAUCACCCAUGUGCAUUUAUAUGCGCGCUCAGAAGGGAGGUAGAUAAU [Mat - Same state - Malcolm Mod - D118]”, the “apparent KD of MS2 coat protein” value in series [1] amounted to 0.0269 µM; in series [2], 0.027 µM.
For “GAGAAACAUGAGGAUCACCCAUGUAGAAAUAUGGGAGGAUAUACAAAGACGAGAGUCAAAGUAGAAGGCCUAGAAG [77%, Mat - Mod of Eli - With 3 more G's]”, in that order: 0.0188 µM and 0.0536 µM.
For “GAUAGACAUGAGGAUCACCCAUGUAGAAUUAUGGGAGGAUAUACAAAGACGAGAGUCAGAGUAGAAGGCCUAGGAG [salish99-ss1-158]”, in that order: 0.0281 µM and 0.0692 µM.
For “GCGAAUAUGGGUUAGGAUAUGCGCGCAUGUACAUGAGGAUCACCCAUGUUUACGGGCGCCUUUGAGCAGAAGGAGCUAAUCAACGC [SameState2Try2_Neo]”, in that order: 0.0215 µM and 0.0242 µM.
Turning to “GGAAAGAAAAGCGAGGAUAUGCUAGGUAAUACAUGAGGAUCACCCAUGUUUUUUUUUAACAAAUUGCAGAAGGCGCAAGAAAGAAA [Ungainly]”, the “apparent KD of MS2 coat protein” value in series [1] is 0.0165 µM; in series [2], 0.0182 µM.
As to “GGAAAUAAAAGAGAGGAUAUCCAAAAGGAAACAUGAGGAUCACCCAUGUAAAAGAAAGGAAAAUGGGAGAAGGCUCAAAAUAAAG [salish99-ss2-004]”, the “apparent KD of MS2 coat protein” value came to 0.0442 µM in series [1] and 0.0561 µM in series [2].
On to “GGAAAUAACAGAGAGGAUAUCCAAAGGAAAACAUGAGGAUCACCCAUGUAAAAGGAAGGAAAUUGGGAGAAGGCUCAAAAUAAUC [salish99-ss2-017]”, for which the “apparent KD of MS2 coat protein” value in series [1] is 0.0239 µM; in series [2], 0.0243 µM.
Taken in the same sequence, the figures for “GGAACACAUGAGGAUCACCCAUGUCAAGGAGGUCGAGGAUAUAGGAAAAAAAAAAAAAAAUUAGAAGGUGAGGAGG [V1]” were 0.169 µM and 0.139 µM.
Taken in the same sequence, the figures for “GGAAGACAUGAGGAUCACCCAUGUGGGAAUAUGGGAGGAUAUACAAAGACGAGAGUCAGAGUAGAAGGCCUAGGAA [salish99-ss1-99]” were 0.0378 µM and 0.176 µM.
On to “GGAGCCGGCACUGAGGAUAUUCAUAUUAAAACAUGAGGAUCACCCAUGUAGGCCAGAAGGCCUUGGGAGAAGGCAGGUCGACUCG [Diqureveri]”, for which the “apparent KD of MS2 coat protein” value in series [1] worked out at 0.0208 µM; in series [2] it was 0.288 µM.
Taken in the same sequence, the figures for “GGAGUACAUGAGGAUCACCCAUGUUGGAACGAAGUAGGAUAUGUACAAUAUUAAAUAAAAACAGAAGGACUAAUAA [Meow]” were 0.0304 µM and 0.0551 µM.
Take “GGAUACAUACAGAAGGAUAUGAGAACAAAGACAUGAGGAUCACCCAUGUACAAAAGGUGGAACAAUCAGAAGGUCUAAACAACAAA [Club and Ball]”: the figures for the “apparent KD of MS2 coat protein” value in series [1] and in series [2] were 0.0576 µM and 0.0521 µM, respectively.
For “GGGAGACAUGAGGAUCACCCAUGUGAGAAGAGGCGAGGAUAUCGAAAGAAAGAAGAGAAACGAGAAGGCGCGAGGG [salish99-SS1-059]”, in that order: 0.0574 µM and 0.075 µM.
Regarding “GGGAGACAUGAGGAUCACCCAUGUGAGAAGAGGCGAGGAUAUCGAAAGAAAGAAGAGAAACGAGAAGGCGCGAGUU [salish99-SS1-054]”, the “apparent KD of MS2 coat protein” value in series [1] was 0.035 µM; in series [2], 0.0547 µM.
Consider “GUAGAACAUGAGGAUCACCCAUGUGAAGACGCAUGAGGAUAUAUCCGUACAUAGCAUACGAUAGAAGGCAUGAUAA [JR_SS001_Sub1704]”, for which the “apparent KD of MS2 coat protein” value in series [1] was 0.0296 µM; in series [2], 0.0906 µM.
In the case of “GUCCAACAUGAGGAUCACCCAUGUAAGCGUGAUCAAGGAUAUGGGCGAAAGAAAACGCAACCAGAAGGUGAGCGCC [Aanmati]”, the “apparent KD of MS2 coat protein” value turned out to be 0.16 µM in series [1] and 0.135 µM in series [2].
For “UAAAAACAUGAGGAUCACCCAUGUGAGAACAUGGGAGGAUAUACAAGGACGAAAGUCAAAGUAGAAGGCCUAAAAU [Mat - Same State 1 - Mod - D176]”, in that order: 0.0998 µM and 0.0293 µM.
Consider “UAUCAUUACACGAAGGAUAUCGAUAAUUGAACAUGAGGAUCACCCAUGUGACAUAUCUUACAGUUCGAGAAGGUCGAGGGUGAAG [JR_SS002_Sub706]”, for which the “apparent KD of MS2 coat protein” value in series [1] came out at 0.0289 µM; in series [2], 0.052 µM.
Taken in the same sequence, the figures for “UGAAAACAUGAGGAUCACCCAUGUCUAGGAAAUCAAGGAUAUGGGCCGGCAAUAGGCGGGCCAGAAGGUGAGAAAU [Arisati]” were 0.0887 µM and 0.144 µM.

For the origin of these results see the supplement of paper PMC9170038.
